Reference: the supplement of paper PMC9112550, “Optimization of the antimicrobial peptide Bac7 by deep mutational scanning” (BMC Biology, 2022)

Test system: Escherichia coli TOP10
Assay: shrunken log2 fold change of peptide-encoding DNA abundance (4.5 h post-induction vs induction); higher = less antimicrobial activity (less host growth inhibition)
Details: time post-induction: 4.5 h; library: site-saturation at positions 5, 18, 19, 20
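Further: peptides expressed intracellularly from a pBAD plasmid library in pooled LB shake-flask culture, induced with 0.3% L-arabinose, DNA abundance read by NGS, three biological replicates, DESeq2 with apeglm shrinkage.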

RRIRPRPPRLPRPRPRPLRPPRP
shrunken log2 fold change: 0.726

RRIRPRPPRLPRPRPRPLSQPRP
shrunken log2 fold change: -0.185

RRIRPRPPRLPRPRPRPLTIPRP
shrunken log2 fold change: -0.275

RRIRPRPPRLPRPRPRPLTPPRP
shrunken log2 fold change: 0.222

RRIRPRPPRLPRPRPRPLVCPRP
shrunken log2 fold change: 0.272

RRIRPRPPRLPRPRPRPLVYPRP
shrunken log2 fold change: -0.0742

RRIRPRPPRLPRPRPRPLWNPRP
shrunken log2 fold change: -0.0917

RRIRPRPPRLPRPRPRPLWTPRP
shrunken log2 fold change: 0.0798

RRIRPRPPRLPRPRPRPLYEPRP
shrunken log2 fold change: -0.303

RRIRPRPPRLPRPRPRPLYYPRP
shrunken log2 fold change: -0.985

RRIRPRPPRLPRPRPRPMAEPRP
shrunken log2 fold change: 0.106

RRIRPRPPRLPRPRPRPMAPPRP
shrunken log2 fold change: -0.0483

RRIRPRPPRLPRPRPRPMCPPRP
shrunken log2 fold change: -0.267

RRIRPRPPRLPRPRPRPMDLPRP
shrunken log2 fold change: -0.00399

RRIRPRPPRLPRPRPRPMDNPRP
shrunken log2 fold change: -0.683

RRIRPRPPRLPRPRPRPMDQPRP
shrunken log2 fold change: -0.113

RRIRPRPPRLPRPRPRPMEQPRP
shrunken log2 fold change: 0.0098

RRIRPRPPRLPRPRPRPMGSPRP
shrunken log2 fold change: -0.0938

RRIRPRPPRLPRPRPRPMHRPRP
shrunken log2 fold change: 0.0978

RRIRPRPPRLPRPRPRPMITPRP
shrunken log2 fold change: -0.407

RRIRPRPPRLPRPRPRPMLHPRP
shrunken log2 fold change: -0.0917

RRIRPRPPRLPRPRPRPMNQPRP
shrunken log2 fold change: 0.00354

RRIRPRPPRLPRPRPRPMQNPRP
shrunken log2 fold change: 0.201

RRIRPRPPRLPRPRPRPMRQPRP
shrunken log2 fold change: 0.398

RRIRPRPPRLPRPRPRPMVNPRP
shrunken log2 fold change: -0.0636

RRIRPRPPRLPRPRPRPMVRPRP
shrunken log2 fold change: -0.0349

RRIRPRPPRLPRPRPRPNDGPRP
shrunken log2 fold change: -0.482

RRIRPRPPRLPRPRPRPNDRPRP
shrunken log2 fold change: -0.0965

RRIRPRPPRLPRPRPRPNFIPRP
shrunken log2 fold change: -0.215

RRIRPRPPRLPRPRPRPNFSPRP
shrunken log2 fold change: 1.08

RRIRPRPPRLPRPRPRPNGQPRP
shrunken log2 fold change: 0.097

RRIRPRPPRLPRPRPRPNHIPRP
shrunken log2 fold change: -0.856

RRIRPRPPRLPRPRPRPNHQPRP
shrunken log2 fold change: -0.251

RRIRPRPPRLPRPRPRPNLPPRP
shrunken log2 fold change: -0.142

RRIRPRPPRLPRPRPRPNNFPRP
shrunken log2 fold change: -0.364

RRIRPRPPRLPRPRPRPNQAPRP
shrunken log2 fold change: -0.0302

RRIRPRPPRLPRPRPRPNQSPRP
shrunken log2 fold change: -0.247

RRIRPRPPRLPRPRPRPNQYPRP
shrunken log2 fold change: -0.509

RRIRPRPPRLPRPRPRPNSDPRP
shrunken log2 fold change: -0.39

RRIRPRPPRLPRPRPRPNSHPRP
shrunken log2 fold change: -0.521

RRIRPRPPRLPRPRPRPNVEPRP
shrunken log2 fold change: 0.0775

RRIRPRPPRLPRPRPRPNVKPRP
shrunken log2 fold change: -0.475

RRIRPRPPRLPRPRPRPNWKPRP
shrunken log2 fold change: -0.101

RRIRPRPPRLPRPRPRPPCVPRP
shrunken log2 fold change: 0.128

RRIRPRPPRLPRPRPRPPDGPRP
shrunken log2 fold change: 0.067

RRIRPRPPRLPRPRPRPPEHPRP
shrunken log2 fold change: 0.0484

RRIRPRPPRLPRPRPRPPFKPRP
shrunken log2 fold change: 0.0437

RRIRPRPPRLPRPRPRPPFLPRP
shrunken log2 fold change: 0.188

RRIRPRPPRLPRPRPRPPIIPRP
shrunken log2 fold change: -0.231

RRIRPRPPRLPRPRPRPPITPRP
shrunken log2 fold change: -0.0969

RRIRPRPPRLPRPRPRPPIWPRP
shrunken log2 fold change: 0.268

RRIRPRPPRLPRPRPRPPKHPRP
shrunken log2 fold change: 0.499

RRIRPRPPRLPRPRPRPPLIPRP
shrunken log2 fold change: -0.338

RRIRPRPPRLPRPRPRPPLPPRP
shrunken log2 fold change: 0.814

RRIRPRPPRLPRPRPRPPLVPRP
shrunken log2 fold change: 0.389

RRIRPRPPRLPRPRPRPPMFPRP
shrunken log2 fold change: 0.0198

RRIRPRPPRLPRPRPRPPMLPRP
shrunken log2 fold change: 0.18

RRIRPRPPRLPRPRPRPPMVPRP
shrunken log2 fold change: 0.0188

RRIRPRPPRLPRPRPRPPNYPRP
shrunken log2 fold change: -0.0609

RRIRPRPPRLPRPRPRPPQCPRP
shrunken log2 fold change: 0.228

RRIRPRPPRLPRPRPRPPQQPRP
shrunken log2 fold change: 0.345

RRIRPRPPRLPRPRPRPPQWPRP
shrunken log2 fold change: 0.403

RRIRPRPPRLPRPRPRPPSEPRP
shrunken log2 fold change: 0.447

RRIRPRPPRLPRPRPRPPTLPRP
shrunken log2 fold change: 0.129

RRIRPRPPRLPRPRPRPPTTPRP
shrunken log2 fold change: 0.327

RRIRPRPPRLPRPRPRPPVAPRP
shrunken log2 fold change: 0.366

RRIRPRPPRLPRPRPRPPWHPRP
shrunken log2 fold change: 0.196

RRIRPRPPRLPRPRPRPPWPPRP
shrunken log2 fold change: 0.688

RRIRPRPPRLPRPRPRPPWRPRP
shrunken log2 fold change: 0.558

RRIRPRPPRLPRPRPRPPYFPRP
shrunken log2 fold change: 0.0747

RRIRPRPPRLPRPRPRPQAYPRP
shrunken log2 fold change: -0.215

RRIRPRPPRLPRPRPRPQCPPRP
shrunken log2 fold change: -0.172

RRIRPRPPRLPRPRPRPQDQPRP
shrunken log2 fold change: -0.126

RRIRPRPPRLPRPRPRPQFCPRP
shrunken log2 fold change: -0.153

RRIRPRPPRLPRPRPRPQFHPRP
shrunken log2 fold change: -0.3

RRIRPRPPRLPRPRPRPQFQPRP
shrunken log2 fold change: -0.192

RRIRPRPPRLPRPRPRPQGIPRP
shrunken log2 fold change: 0.102

RRIRPRPPRLPRPRPRPQHDPRP
shrunken log2 fold change: -0.176

RRIRPRPPRLPRPRPRPQHKPRP
shrunken log2 fold change: -0.449

RRIRPRPPRLPRPRPRPQKGPRP
shrunken log2 fold change: -0.0684

RRIRPRPPRLPRPRPRPQLFPRP
shrunken log2 fold change: 0.0893

RRIRPRPPRLPRPRPRPQPHPRP
shrunken log2 fold change: 0.138

RRIRPRPPRLPRPRPRPQPVPRP
shrunken log2 fold change: 0.212

RRIRPRPPRLPRPRPRPQRTPRP
shrunken log2 fold change: 0.113

RRIRPRPPRLPRPRPRPQSEPRP
shrunken log2 fold change: -0.381

RRIRPRPPRLPRPRPRPQSTPRP
shrunken log2 fold change: -0.136

RRIRPRPPRLPRPRPRPQTQPRP
shrunken log2 fold change: 0.115

RRIRPRPPRLPRPRPRPQTVPRP
shrunken log2 fold change: 0.184

RRIRPRPPRLPRPRPRPQWCPRP
shrunken log2 fold change: -0.0525

RRIRPRPPRLPRPRPRPQYIPRP
shrunken log2 fold change: -0.457

RRIRPRPPRLPRPRPRPQYKPRP
shrunken log2 fold change: -0.129

RRIRPRPPRLPRPRPRPQYPPRP
shrunken log2 fold change: -0.133

RRIRPRPPRLPRPRPRPRAYPRP
shrunken log2 fold change: -0.13

RRIRPRPPRLPRPRPRPRCAPRP
shrunken log2 fold change: 1.73

RRIRPRPPRLPRPRPRPRCKPRP
shrunken log2 fold change: 0.215

RRIRPRPPRLPRPRPRPREVPRP
shrunken log2 fold change: 0.419

RRIRPRPPRLPRPRPRPRFFPRP
shrunken log2 fold change: 0.211

RRIRPRPPRLPRPRPRPRGKPRP
shrunken log2 fold change: -0.0806

RRIRPRPPRLPRPRPRPRGPPRP
shrunken log2 fold change: 0.545

RRIRPRPPRLPRPRPRPRGWPRP
shrunken log2 fold change: 1.12

RRIRPRPPRLPRPRPRPRHGPRP
shrunken log2 fold change: 0.0491

RRIRPRPPRLPRPRPRPRHLPRP
shrunken log2 fold change: -0.0836

RRIRPRPPRLPRPRPRPRHTPRP
shrunken log2 fold change: 0.136

RRIRPRPPRLPRPRPRPRIAPRP
shrunken log2 fold change: 0.451

RRIRPRPPRLPRPRPRPRISPRP
shrunken log2 fold change: -0.145

RRIRPRPPRLPRPRPRPRITPRP
shrunken log2 fold change: 0.0754

RRIRPRPPRLPRPRPRPRIWPRP
shrunken log2 fold change: 0.362

RRIRPRPPRLPRPRPRPRKMPRP
shrunken log2 fold change: 0.0337

RRIRPRPPRLPRPRPRPRLEPRP
shrunken log2 fold change: 0.197

RRIRPRPPRLPRPRPRPRLLPRP
shrunken log2 fold change: 0.321

RRIRPRPPRLPRPRPRPRLTPRP
shrunken log2 fold change: 0.293

RRIRPRPPRLPRPRPRPRLWPRP
shrunken log2 fold change: 0.917

RRIRPRPPRLPRPRPRPRMFPRP
shrunken log2 fold change: 0.0598

RRIRPRPPRLPRPRPRPRNLPRP
shrunken log2 fold change: 0.067

RRIRPRPPRLPRPRPRPRPEPRP
shrunken log2 fold change: 0.373

RRIRPRPPRLPRPRPRPRPRPRP
shrunken log2 fold change: 0.744

RRIRPRPPRLPRPRPRPRQIPRP
shrunken log2 fold change: -0.0965

RRIRPRPPRLPRPRPRPRQKPRP
shrunken log2 fold change: 0.0891

RRIRPRPPRLPRPRPRPRRLPRP
shrunken log2 fold change: 0.279

RRIRPRPPRLPRPRPRPRSWPRP
shrunken log2 fold change: 0.533

RRIRPRPPRLPRPRPRPRVDPRP
shrunken log2 fold change: 0.263

RRIRPRPPRLPRPRPRPRVEPRP
shrunken log2 fold change: 0.625

RRIRPRPPRLPRPRPRPRVWPRP
shrunken log2 fold change: 0.482

RRIRPRPPRLPRPRPRPRWEPRP
shrunken log2 fold change: 0.444

RRIRPRPPRLPRPRPRPRYLPRP
shrunken log2 fold change: -0.402

RRIRPRPPRLPRPRPRPSAQPRP
shrunken log2 fold change: -0.0511

RRIRPRPPRLPRPRPRPSECPRP
shrunken log2 fold change: -0.651

RRIRPRPPRLPRPRPRPSEEPRP
shrunken log2 fold change: 0.591

RRIRPRPPRLPRPRPRPSEIPRP
shrunken log2 fold change: -0.261

RRIRPRPPRLPRPRPRPSFSPRP
shrunken log2 fold change: -0.578

RRIRPRPPRLPRPRPRPSGKPRP
shrunken log2 fold change: -0.247

RRIRPRPPRLPRPRPRPSHWPRP
shrunken log2 fold change: 0.959

RRIRPRPPRLPRPRPRPSKDPRP
shrunken log2 fold change: -0.451

RRIRPRPPRLPRPRPRPSQCPRP
shrunken log2 fold change: -0.985

RRIRPRPPRLPRPRPRPSQMPRP
shrunken log2 fold change: 0.185

RRIRPRPPRLPRPRPRPSRNPRP
shrunken log2 fold change: 0.0326

RRIRPRPPRLPRPRPRPSRSPRP
shrunken log2 fold change: 0.0328

RRIRPRPPRLPRPRPRPSTQPRP
shrunken log2 fold change: -0.355

RRIRPRPPRLPRPRPRPSWDPRP
shrunken log2 fold change: -0.0474

RRIRPRPPRLPRPRPRPSWQPRP
shrunken log2 fold change: -0.0441

RRIRPRPPRLPRPRPRPSYKPRP
shrunken log2 fold change: -0.564

RRIRPRPPRLPRPRPRPTADPRP
shrunken log2 fold change: 0.407

RRIRPRPPRLPRPRPRPTCAPRP
shrunken log2 fold change: 0.268

RRIRPRPPRLPRPRPRPTCCPRP
shrunken log2 fold change: -0.0529

RRIRPRPPRLPRPRPRPTEEPRP
shrunken log2 fold change: 0.551

RRIRPRPPRLPRPRPRPTESPRP
shrunken log2 fold change: -0.041

RRIRPRPPRLPRPRPRPTFLPRP
shrunken log2 fold change: -0.0646

RRIRPRPPRLPRPRPRPTGYPRP
shrunken log2 fold change: -0.151

RRIRPRPPRLPRPRPRPTHCPRP
shrunken log2 fold change: 0.1

RRIRPRPPRLPRPRPRPTIWPRP
shrunken log2 fold change: 0.349
